*1 amine or outer side, *2 acyl side, *3 side chain or, on linkers, in order; H or OH if unused. Bridges are numbered along the chain shown (N, C = ends). Roman numbers before positions name the chains, in order. Primed or numbered codes have the meaning given here. Where no end group is shown, it is not given here. Side-chain parts run from the residue outwards. The star is where a group is joined. ivDde′ = (4,4-dimethyl-2,6-dioxocyclohex-1-ylidene)-3-methylbutyl protecting group, CC(C)CC(=C1C(=O)CC(C)(C)CC1=O)*; Biotin = O=C1N[C@H]2[C@H](CS[C@H]2CCCCC(=O)*)N1; Glutaryl = O=C(CCCC(=O)[*:2])[*:1]; AEEA = NCCOCCOCC(=O)O Where only a bound is given, the exact number is not on record here.

Data on eight molecules can be found in patent publication EP1482987B1 (Bracco Suisse SA, dated 2014).

Assay [1] concerns the target KDR (full-length receptor) expressed on transiently transfected 293H cells (human) (UniProt P35968). Kind of assay: competition with 300 pM 125I-VEGF on KDR-transfected 293H cells; peptide 0.3 µM.
Assay [2] shares this target. As to the kind of experiment: competition with 300 pM 125I-VEGF on KDR-transfected 293H cells; peptide 30 µM.
Assay [3] deals with KDR on human umbilical vein endothelial cells (HUVECs) (human, UniProt P35968 20-1356). Kind of assay: cell-based or functional assay.
KDR on human umbilical vein endothelial cells (HUVECs), sequence (P35968 20-1356): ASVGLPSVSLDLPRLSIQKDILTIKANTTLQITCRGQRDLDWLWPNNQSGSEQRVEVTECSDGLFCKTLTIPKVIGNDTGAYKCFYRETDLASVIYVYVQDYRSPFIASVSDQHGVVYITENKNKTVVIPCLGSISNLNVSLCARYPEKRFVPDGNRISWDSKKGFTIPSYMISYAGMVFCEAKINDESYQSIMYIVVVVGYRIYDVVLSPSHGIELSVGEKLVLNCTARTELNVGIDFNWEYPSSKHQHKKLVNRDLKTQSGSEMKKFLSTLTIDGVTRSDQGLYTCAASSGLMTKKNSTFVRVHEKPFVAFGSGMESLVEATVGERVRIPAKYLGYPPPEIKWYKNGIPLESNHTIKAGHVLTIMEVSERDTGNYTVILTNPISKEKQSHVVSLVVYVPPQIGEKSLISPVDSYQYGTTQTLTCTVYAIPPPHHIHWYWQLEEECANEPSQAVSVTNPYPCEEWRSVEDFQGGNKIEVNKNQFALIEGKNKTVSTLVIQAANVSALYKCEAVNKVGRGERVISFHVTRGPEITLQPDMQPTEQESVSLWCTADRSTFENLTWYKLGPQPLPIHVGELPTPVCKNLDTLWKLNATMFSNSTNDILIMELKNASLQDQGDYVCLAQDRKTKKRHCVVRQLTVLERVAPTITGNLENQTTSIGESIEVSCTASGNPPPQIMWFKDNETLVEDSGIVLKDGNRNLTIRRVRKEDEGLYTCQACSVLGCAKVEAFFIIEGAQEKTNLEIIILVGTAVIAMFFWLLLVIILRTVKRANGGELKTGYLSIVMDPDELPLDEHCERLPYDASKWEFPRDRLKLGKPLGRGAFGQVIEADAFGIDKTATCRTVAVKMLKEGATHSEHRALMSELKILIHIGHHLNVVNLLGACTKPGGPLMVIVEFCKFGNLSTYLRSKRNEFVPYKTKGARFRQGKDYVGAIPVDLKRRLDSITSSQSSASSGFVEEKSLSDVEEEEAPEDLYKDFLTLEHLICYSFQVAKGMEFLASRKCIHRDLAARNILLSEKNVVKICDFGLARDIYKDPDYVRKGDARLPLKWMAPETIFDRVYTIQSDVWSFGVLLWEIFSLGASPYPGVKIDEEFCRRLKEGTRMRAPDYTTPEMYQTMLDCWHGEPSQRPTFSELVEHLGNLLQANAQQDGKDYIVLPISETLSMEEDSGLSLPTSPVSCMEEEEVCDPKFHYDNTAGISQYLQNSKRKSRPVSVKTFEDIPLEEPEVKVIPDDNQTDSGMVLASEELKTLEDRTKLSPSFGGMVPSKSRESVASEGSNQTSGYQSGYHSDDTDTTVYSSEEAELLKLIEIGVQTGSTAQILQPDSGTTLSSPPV
In assay [4] the target is Soluble KDR receptor (UniProt P35968 20-764, limits assumed). As to the kind of experiment: SPR (Biacore 3000), soluble KDR on CM5. In general terms: Surface plasmon resonance follows binding to a sensor surface in real time, without labels.
Soluble KDR receptor, sequence (P35968 20-764 limits assumed): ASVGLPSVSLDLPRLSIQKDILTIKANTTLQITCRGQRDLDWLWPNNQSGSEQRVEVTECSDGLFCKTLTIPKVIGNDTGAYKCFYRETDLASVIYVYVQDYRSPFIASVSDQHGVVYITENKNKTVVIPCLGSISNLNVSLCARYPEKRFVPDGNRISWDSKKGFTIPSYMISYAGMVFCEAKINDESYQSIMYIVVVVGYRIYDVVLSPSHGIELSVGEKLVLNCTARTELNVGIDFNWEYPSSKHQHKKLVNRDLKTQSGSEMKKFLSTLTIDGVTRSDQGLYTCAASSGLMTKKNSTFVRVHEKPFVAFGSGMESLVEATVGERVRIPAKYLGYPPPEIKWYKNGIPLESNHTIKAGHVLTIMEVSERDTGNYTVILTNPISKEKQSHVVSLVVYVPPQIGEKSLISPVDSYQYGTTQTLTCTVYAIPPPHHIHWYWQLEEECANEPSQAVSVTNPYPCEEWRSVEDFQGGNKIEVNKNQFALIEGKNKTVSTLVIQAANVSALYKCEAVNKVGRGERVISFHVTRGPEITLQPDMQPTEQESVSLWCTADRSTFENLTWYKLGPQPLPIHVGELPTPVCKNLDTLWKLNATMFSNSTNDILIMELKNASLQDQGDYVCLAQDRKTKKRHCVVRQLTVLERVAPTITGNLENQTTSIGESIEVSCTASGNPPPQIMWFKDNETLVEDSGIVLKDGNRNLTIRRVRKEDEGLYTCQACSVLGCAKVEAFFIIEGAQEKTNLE

KDR (full-length receptor) expressed on transiently transfected 293H cells (human), sequence (P35968 20-1356): as the sequence (P35968 20-1356) above

Take GDSRVCWEDSWGGEVCFRYDP [P6]: the % inhibition of 125I-VEGF binding worked out at 52.3% in assay [1] and 96.3% in assay [2].

B1: P3-D (peptide)
peptide: Ac-AGWLECYAEFGHCYNFGTGGGK-NH2
modifications: disulfide 6-13
SMILES: CC(=O)N[C@@H](C)C(=O)NCC(=O)N[C@@H](Cc1c[nH]c2ccccc12)C(=O)N[C@@H](CC(C)C)C(=O)N[C@@H](CCC(=O)O)C(=O)N[C@H]1CSSC[C@@H](C(=O)N[C@@H](Cc2ccc(O)cc2)C(=O)N[C@@H](CC(N)=O)C(=O)N[C@@H](Cc2ccccc2)C(=O)NCC(=O)N[C@H](C(=O)NCC(=O)NCC(=O)NCC(=O)N[C@@H](CCCCN)C(N)=O)[C@@H](C)O)NC(=O)[C@H](Cc2c[nH]cn2)NC(=O)CNC(=O)[C@H](Cc2ccccc2)NC(=O)[C@H](CCC(=O)O)NC(=O)[C@H](C)NC(=O)[C@H](Cc2ccc(O)cc2)NC1=O
With B1, in assay [3], the “inhibition of VEGF-induced KDR phosphorylation” value was at least 50 % inhibition at 10 µM. On to Ac-AQGDYVYWEIIELTGATDHTPPGGGK-NH2 [P11-D], for which, in assay [3], the “inhibition of VEGF-induced KDR phosphorylation” value is at least 50 % inhibition at 10 µM.

B2: P7-E (peptide)
peptide: Ac-GDWWECK(ivDde′)REEYRNTTWCAWADPGGGK-NH2
modifications: disulfide 6-17
SMILES: CC(=O)NCC(=O)N[C@@H](CC(=O)O)C(=O)N[C@@H](Cc1c[nH]c2ccccc12)C(=O)N[C@@H](Cc1c[nH]c2ccccc12)C(=O)N[C@@H](CCC(=O)O)C(=O)N[C@H]1CSSC[C@@H](C(=O)N[C@@H](C)C(=O)N[C@@H](Cc2c[nH]c3ccccc23)C(=O)N[C@@H](C)C(=O)N[C@@H](CC(=O)O)C(=O)N2CCC[C@H]2C(=O)NCC(=O)NCC(=O)NCC(=O)N[C@@H](CCCCN)C(N)=O)NC(=O)[C@H](Cc2c[nH]c3ccccc23)NC(=O)[C@H]([C@@H](C)O)NC(=O)[C@H]([C@@H](C)O)NC(=O)[C@H](CC(N)=O)NC(=O)[C@H](CCCNC(=N)N)NC(=O)[C@H](Cc2ccc(O)cc2)NC(=O)[C@H](CCC(=O)O)NC(=O)[C@H](CCC(=O)O)NC(=O)[C@H](CCCNC(=N)N)NC(=O)[C@H](CCCCNC(CC(C)C)=C2C(=O)CC(C)(C)CC2=O)NC1=O
Regarding B2, the “inhibition of VEGF-induced KDR phosphorylation” value in assay [3] was at least 50 % inhibition at 10 µM.

B3: P12-XB (peptide)
peptide: Ac-AGPTWCEDDWYYCWLFGTGGGK([AEEA-AEEA-Biotin])-NH2
modifications: disulfide 6-13
SMILES: CC(=O)N[C@@H](C)C(=O)NCC(=O)N1CCC[C@H]1C(=O)N[C@H](C(=O)N[C@@H](Cc1c[nH]c2ccccc12)C(=O)N[C@H]1CSSC[C@@H](C(=O)N[C@@H](Cc2c[nH]c3ccccc23)C(=O)N[C@@H](CC(C)C)C(=O)N[C@@H](Cc2ccccc2)C(=O)NCC(=O)N[C@H](C(=O)NCC(=O)NCC(=O)NCC(=O)N[C@@H](CCCCNC(=O)COCCOCCNC(=O)COCCOCCNC(=O)CCCC[C@@H]2SC[C@@H]3NC(=O)N[C@@H]32)C(N)=O)[C@@H](C)O)NC(=O)[C@H](Cc2ccc(O)cc2)NC(=O)[C@H](Cc2ccc(O)cc2)NC(=O)[C@H](Cc2c[nH]c3ccccc23)NC(=O)[C@H](CC(=O)O)NC(=O)[C@H](CC(=O)O)NC(=O)[C@H](CCC(=O)O)NC1=O)[C@@H](C)O
In the case of B3, the % inhibition of 125I-VEGF binding in assay [1] amounted to 81%; in assay [2] it was 104%. For the same molecule, in assay [3], the “IC50, receptor activation assay” value worked out at 100 nM.

B4: Head-to-head dimer (P9/P10 heterodimer) (peptide)
peptide 1: AQEPEGYAYWEVITLYHEEDGDGG
peptide 2: AQAFPRFGGDDYWIQQYLRYTDGG
modifications: bridge I:N-II:N; not fully specified (N-terminus); also: head-to-head heterodimer, N-termini joined by oxime
notes: also called H-H dimer
B4: the “fold increase in affinity over P10” value in assay [4] is over 560 fold.

B5: P8-D (peptide)
peptide: Ac-GDPDTCTMWGDSGRWYCFPADPGGGK-NH2
modifications: disulfide 6-17
SMILES: CSCC[C@@H]1NC(=O)[C@H]([C@@H](C)O)NC(=O)[C@@H](NC(=O)[C@@H](NC(=O)[C@H](CC(=O)O)NC(=O)[C@@H]2CCCN2C(=O)[C@H](CC(=O)O)NC(=O)CNC(C)=O)[C@@H](C)O)CSSC[C@@H](C(=O)N[C@@H](Cc2ccccc2)C(=O)N2CCC[C@H]2C(=O)N[C@@H](C)C(=O)N[C@@H](CC(=O)O)C(=O)N2CCC[C@H]2C(=O)NCC(=O)NCC(=O)NCC(=O)N[C@@H](CCCCN)C(N)=O)NC(=O)[C@H](Cc2ccc(O)cc2)NC(=O)[C@H](Cc2c[nH]c3ccccc23)NC(=O)[C@H](CCCNC(=N)N)NC(=O)CNC(=O)[C@H](CO)NC(=O)[C@H](CC(=O)O)NC(=O)CNC(=O)[C@H](Cc2c[nH]c3ccccc23)NC1=O
As to B5, the “inhibition of VEGF-induced KDR phosphorylation” value in assay [3] is at least 50 % inhibition at 10 µM.

B6: D1 (peptide)
peptide 1: AGPTWCEDDWYYCWLFGTGGGK
peptide 2: VCWEDSWGGEVCFRYDPGGGK
modifications: linker (positions not given here) via Glutaryl; disulfide I:6-I:13, II:2-II:12; also: two chains linked by a glutaryl linker, exact groups only in a drawing
With B6, in assay [3], the “IC50, receptor activation assay” value fell in the range of 0.5 to 1 nM.
